Tests used:
[1] = target: T1, full-length murine βKlotho expressed in HEK293 cells (mouse, UniProt Q99N32 1-1043); test: immunocytochemistry of transfected HEK293 cells
T1 construct: whole, on cells
T1 sequence (looked up): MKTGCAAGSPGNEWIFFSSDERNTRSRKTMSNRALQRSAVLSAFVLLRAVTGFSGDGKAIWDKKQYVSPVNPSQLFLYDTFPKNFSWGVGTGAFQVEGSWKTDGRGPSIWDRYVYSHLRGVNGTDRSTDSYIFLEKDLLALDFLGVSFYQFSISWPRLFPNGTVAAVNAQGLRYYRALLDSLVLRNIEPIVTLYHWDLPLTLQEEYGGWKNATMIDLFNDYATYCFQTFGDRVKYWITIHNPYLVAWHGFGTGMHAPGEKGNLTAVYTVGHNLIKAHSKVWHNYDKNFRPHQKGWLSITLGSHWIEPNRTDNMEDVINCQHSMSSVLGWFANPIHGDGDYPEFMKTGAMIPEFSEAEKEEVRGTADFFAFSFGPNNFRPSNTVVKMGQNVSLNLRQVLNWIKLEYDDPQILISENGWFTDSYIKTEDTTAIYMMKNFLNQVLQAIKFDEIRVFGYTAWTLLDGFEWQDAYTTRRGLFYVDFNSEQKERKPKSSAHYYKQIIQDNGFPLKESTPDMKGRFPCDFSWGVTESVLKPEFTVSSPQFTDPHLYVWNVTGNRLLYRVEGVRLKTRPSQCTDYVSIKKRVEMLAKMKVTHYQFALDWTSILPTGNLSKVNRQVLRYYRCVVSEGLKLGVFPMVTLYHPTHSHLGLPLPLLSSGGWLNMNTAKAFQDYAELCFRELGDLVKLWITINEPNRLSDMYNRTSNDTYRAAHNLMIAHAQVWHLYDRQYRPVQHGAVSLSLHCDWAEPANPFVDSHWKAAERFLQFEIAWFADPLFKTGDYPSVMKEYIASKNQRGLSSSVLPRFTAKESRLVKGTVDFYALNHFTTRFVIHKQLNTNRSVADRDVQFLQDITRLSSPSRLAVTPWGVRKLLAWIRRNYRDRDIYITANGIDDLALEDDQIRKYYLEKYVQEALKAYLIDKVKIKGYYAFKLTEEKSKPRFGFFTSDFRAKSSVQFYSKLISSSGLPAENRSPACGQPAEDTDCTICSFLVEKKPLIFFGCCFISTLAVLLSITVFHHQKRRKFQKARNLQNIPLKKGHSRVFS

[2] = target: T2, extracellular domain (ECD) of human αKlotho, amino acids E34-S981 with C-terminal 6-His tag (R&D Systems … (human, UniProt Q9UEF7 34-981)); test: SPR, Fab captured by anti-H+L antibody, αKlotho injected
T2 construct: range 34-981; also called αKlotho (aa34-981); target antigen
T2 sequence: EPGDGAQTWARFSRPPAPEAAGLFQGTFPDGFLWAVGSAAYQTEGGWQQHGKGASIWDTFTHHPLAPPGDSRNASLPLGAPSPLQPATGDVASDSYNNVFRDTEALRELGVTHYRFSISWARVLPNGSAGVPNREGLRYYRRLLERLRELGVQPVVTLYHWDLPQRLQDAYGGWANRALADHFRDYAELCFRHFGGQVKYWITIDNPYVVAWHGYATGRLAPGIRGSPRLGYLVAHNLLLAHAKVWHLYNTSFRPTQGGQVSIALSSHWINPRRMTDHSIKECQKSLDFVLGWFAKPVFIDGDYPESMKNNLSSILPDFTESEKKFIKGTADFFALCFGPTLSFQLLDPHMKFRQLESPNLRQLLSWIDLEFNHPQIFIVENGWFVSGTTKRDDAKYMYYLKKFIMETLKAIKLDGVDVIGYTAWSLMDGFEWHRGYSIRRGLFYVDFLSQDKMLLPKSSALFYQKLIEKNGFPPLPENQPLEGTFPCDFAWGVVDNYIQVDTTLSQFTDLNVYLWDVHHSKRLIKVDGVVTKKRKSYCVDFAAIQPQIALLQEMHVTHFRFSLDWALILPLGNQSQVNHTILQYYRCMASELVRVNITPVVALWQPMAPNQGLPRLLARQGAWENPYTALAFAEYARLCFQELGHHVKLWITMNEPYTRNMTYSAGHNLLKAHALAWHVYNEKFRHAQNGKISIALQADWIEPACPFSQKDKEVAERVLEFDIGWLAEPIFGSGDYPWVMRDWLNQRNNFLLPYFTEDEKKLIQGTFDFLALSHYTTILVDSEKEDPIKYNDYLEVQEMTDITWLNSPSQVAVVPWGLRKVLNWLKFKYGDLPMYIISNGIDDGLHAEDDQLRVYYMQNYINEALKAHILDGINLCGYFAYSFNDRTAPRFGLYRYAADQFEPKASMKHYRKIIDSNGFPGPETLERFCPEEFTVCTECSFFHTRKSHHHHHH
Method: Affinity estimates for each of the antibodies were determined by surface plasmon resonance (SPR). Fabs were immobilized using an anti-H+L antibody and serial dilutions of αKlotho were injected.

binding result [1]: no binding (tested: 5 µg/ml)
Kd [2]: 1.9 nM
B1: sb106 Fab (Fab, V domains shown)
VH: EVQLVESGGGLVQPGGSLRLSCAASGFNISYYSIHWVRQAPGKGLEWVAYISPSYGYTSYADSVKGRFTISADTSKNTAYLQMNSLRAEDTAVYYCARYYVYASHGWAGYGMDYWGQGTLVTVSS
VL: DIQMTQSPSSLSASVGDRVTITCRASQSVSSAVAWYQQKPGKAPKLLIYSASSLYSGVPSRFSGSRSGTDFTLTISSLQPEDFATYYCQQAGYSPITFGQGTKVEIKR
notes: also called Fsb106; clone 48
